What all share (assay): BLI Octet RED 384; antibody on ProA sensor, antigen 30 ug/ml
On the technique in general: BLI is a label-free optical method that tracks binding on a fibre tip over time.

The target of experiment [1] is T1, Her3-H6F, Receptor tyrosine-protein kinase erbB-3 (Homo sapiens) aa 21-643 (Homo sapiens, UniProt P21860 21-643).
T1 construct: not shown: His and FLAG tags implied by the name 'H6F'

Experiment [2] addresses T2, extracellular domain of the human CSF1R protein (hCSF1R_His) (Homo sapiens, UniProt P07333 20-512).
T2 construct: range 20-512; Molecular weight 57.4 kDa; made in CHO cells; also called hCSF1_His; not shown: C-terminal His and FLAG tags

Experiment [3] concerns the target T3, hIL4R-His, Interleukin-4 receptor subunit alpha (Homo sapiens) aa 27-227 (Homo sapiens, UniProt P24394 27-227).
T3 construct: range 27-227; not shown: His tag as the name implies
T3 sequence (looked up): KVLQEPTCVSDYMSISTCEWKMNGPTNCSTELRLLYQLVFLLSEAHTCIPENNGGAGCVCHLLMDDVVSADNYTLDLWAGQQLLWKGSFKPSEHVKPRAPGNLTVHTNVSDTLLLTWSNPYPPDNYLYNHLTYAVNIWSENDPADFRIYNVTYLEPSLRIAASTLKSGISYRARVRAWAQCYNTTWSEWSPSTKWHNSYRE

The target of experiment [4] is T4, C-Avi-His-TEVs-HSA_hBCMA, Tumor necrosis factor receptor superfamily member 17 (Homo sapiens) aa 1-54 (Homo sapiens, UniProt Q02223 1-54).
T4 construct: range 1-54; not shown: Avi, His, TEV site and HSA parts as the name implies
T4 sequence (looked up): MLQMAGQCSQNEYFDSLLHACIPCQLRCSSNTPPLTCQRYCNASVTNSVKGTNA

Experiment [5] deals with T5, hCD38-Avi, ADP-ribosyl cyclase/cyclic ADP-ribose hydrolase 1 (Homo sapiens) aa 43-300 (Homo sapiens, UniProt P28907 43-300).
T5 construct: range 43-300; not shown: Avi tag as the name implies
T5 sequence (looked up): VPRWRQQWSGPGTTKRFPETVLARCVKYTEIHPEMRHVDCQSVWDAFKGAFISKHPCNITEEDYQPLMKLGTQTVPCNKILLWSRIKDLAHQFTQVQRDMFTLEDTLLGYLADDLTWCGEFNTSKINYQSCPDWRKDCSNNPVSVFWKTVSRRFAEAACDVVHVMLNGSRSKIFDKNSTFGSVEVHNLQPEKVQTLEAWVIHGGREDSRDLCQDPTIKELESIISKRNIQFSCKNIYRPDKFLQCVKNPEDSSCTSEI

T2 sequence (P07333 20-512 limits assumed): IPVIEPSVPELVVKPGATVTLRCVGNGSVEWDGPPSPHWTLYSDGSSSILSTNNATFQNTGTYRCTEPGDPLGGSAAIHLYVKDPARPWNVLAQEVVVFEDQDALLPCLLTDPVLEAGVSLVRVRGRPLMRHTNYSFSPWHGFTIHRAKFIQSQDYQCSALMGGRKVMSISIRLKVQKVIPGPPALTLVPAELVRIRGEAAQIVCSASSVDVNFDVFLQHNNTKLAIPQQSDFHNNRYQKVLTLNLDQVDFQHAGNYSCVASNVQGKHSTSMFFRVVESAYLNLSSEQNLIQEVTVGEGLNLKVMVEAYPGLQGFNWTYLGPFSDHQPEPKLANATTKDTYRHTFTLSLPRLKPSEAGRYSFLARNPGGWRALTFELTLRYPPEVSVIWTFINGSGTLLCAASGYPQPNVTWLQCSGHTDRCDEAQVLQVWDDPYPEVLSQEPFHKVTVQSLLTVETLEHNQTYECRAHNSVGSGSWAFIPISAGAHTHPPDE
T1 sequence (P21860 21-643 limits assumed): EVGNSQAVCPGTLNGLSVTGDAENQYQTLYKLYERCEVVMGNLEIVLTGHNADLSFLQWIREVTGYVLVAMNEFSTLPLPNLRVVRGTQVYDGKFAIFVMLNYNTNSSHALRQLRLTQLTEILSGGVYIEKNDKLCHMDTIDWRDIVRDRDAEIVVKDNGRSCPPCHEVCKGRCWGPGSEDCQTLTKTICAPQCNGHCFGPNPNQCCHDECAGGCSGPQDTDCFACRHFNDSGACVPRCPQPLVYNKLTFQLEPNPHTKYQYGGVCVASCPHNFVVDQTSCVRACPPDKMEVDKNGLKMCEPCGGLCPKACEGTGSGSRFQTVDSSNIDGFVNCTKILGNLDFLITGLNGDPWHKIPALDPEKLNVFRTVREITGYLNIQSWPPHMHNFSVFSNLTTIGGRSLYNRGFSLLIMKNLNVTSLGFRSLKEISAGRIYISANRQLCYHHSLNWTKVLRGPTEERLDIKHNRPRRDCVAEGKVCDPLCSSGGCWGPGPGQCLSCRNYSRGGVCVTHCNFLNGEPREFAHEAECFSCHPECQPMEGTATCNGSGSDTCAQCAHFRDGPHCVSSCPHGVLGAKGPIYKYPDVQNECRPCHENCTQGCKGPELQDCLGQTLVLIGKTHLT

B1: 02-004, bivalent bispecific chimeric antibody that specifically binds to PD1 and CD20 (bispecific antibody, human IgG1, kappa, L234A L235A)
heavy 1: QVQLVQSGGGLVQPGGSLRLSCAASGFTFSSYWMYWVRQVPGKGLEWVSAIDTGGGRTYYADSVKGRFAISRVNAKNTMYLQMNSLRAEDTAVYYCARDEGGGTGWGVLKDWPYGLDAWGQGTLVTVSSASTKGPSVFPLAPSSKSTSGGTAALGCLVKDYFPEPVTVSWNSGALTSGVHTFPAVLQSSGLYSLSSVVTVPSSSLGTQTYICNVNHKPSNTKVDKRVEPKSCDKTHTCPPCPAPEAAGGPSVFLFPPKPKDTLYITREPEVTCVVVDVSHEDPEVKFNWYVDGVEVHNAKTKPREEQYNSTYRVVSVLTVLHQDWLNGKEYKCKVSNKALPAPIEKTISKAKGQPREPQVCTLPPSRDELTKNQVSLSCAVKGFYPSDIAVEWESNGQPENNYKTTPPVLDSDGSFFLVSKLTVDKSRWQQGNVFSCSVMHEALHNHYTQKSLSLSPGK
light 1: QPVLTQPLSVSVALGQTARITCGGNNIGSKNVHWYQQKPGQAPVLVIYRDSNRPSGIPERFSGSNSGNTATLTISRAQAGDEADYYCQVWDSSTAVFGTGTKLTVLQRTVAAPSVFIFPPSDEQLKSGTASVVCLLNNFYPREAKVQWKVDNALQSGNSQESVTEQDSKDSTYSLSSTLTLSKADYEKHKVYACEVTHQGLSSPVTKSFNRGEC
heavy 2: not shown
light 2: DIQMTQSPSSLSASVGDRVTITCRASSSVSYMHWYQQKPGKAPKPLIYAPSNLASGVPSRFSGSGSGTDFTLTISSLQPEDFATYYCQQWSFNPPTFGQGTKVEIKQRQVKPEAWLSSGPSPGPGRLQLVCHVSGFYPKPVWVMWMRGEQEQQGTQLGDILPNANWTWYLRATLDVADGEAAGLSCRVKHSSLEGQDIILYWRGSC
notes: Produced in CHO cells
As to B1, the binding result is “no binding (tested: 420.8 nM)” in experiment [1]; “no binding (tested: 522.5 nM)” in experiment [2]; “no binding (tested: 1154 nM)” in experiment [3]; “no binding (tested: 391.2 nM)” in experiment [4]; “no binding (tested: 854.7 nM)” in experiment [5].

B2: 02-006, bivalent bispecific chimeric antibody that specifically binds to PD1 and CSF1R (bispecific antibody, human IgG1, kappa, L234A L235A)
heavy 1: QVQLVQSGGGLVQPGGSLRLSCAASGFTFSSYWMYWVRQVPGKGLEWVSAIDTGGGRTYYADSVKGRFAISRVNAKNTMYLQMNSLRAEDTAVYYCARDEGGGTGWGVLKDWPYGLDAWGQGTLVTVSSASTKGPSVFPLAPSSKSTSGGTAALGCLVKDYFPEPVTVSWNSGALTSGVHTFPAVLQSSGLYSLSSVVTVPSSSLGTQTYICNVNHKPSNTKVDKRVEPKSCDKTHTCPPCPAPEAAGGPSVFLFPPKPKDTLYITREPEVTCVVVDVSHEDPEVKFNWYVDGVEVHNAKTKPREEQYNSTYRVVSVLTVLHQDWLNGKEYKCKVSNKALPAPIEKTISKAKGQPREPQVCTLPPSRDELTKNQVSLSCAVKGFYPSDIAVEWESNGQPENNYKTTPPVLDSDGSFFLVSKLTVDKSRWQQGNVFSCSVMHEALHNHYTQKSLSLSPGK
light 1: QPVLTQPLSVSVALGQTARITCGGNNIGSKNVHWYQQKPGQAPVLVIYRDSNRPSGIPERFSGSNSGNTATLTISRAQAGDEADYYCQVWDSSTAVFGTGTKLTVLQRTVAAPSVFIFPPSDEQLKSGTASVVCLLNNFYPREAKVQWKVDNALQSGNSQESVTEQDSKDSTYSLSSTLTLSKADYEKHKVYACEVTHQGLSSPVTKSFNRGEC
heavy 2: not shown
light 2: QAGLTQPPSVSVAPGQTARITCGGNNIGSKSVHWYQQKPGQAPVLVVYGDSDRPSGIPERFSGSNSGNTATLTISRVEAGDEADYYCQVWDISSDHVVFGGGTQLTVLQRQVKPEAWLSSGPSPGPGRLQLVCHVSGFYPKPVWVMWMRGEQEQQGTQLGDILPNANWTWYLRATLDVADGEAAGLSCRVKHSSLEGQDIILYWRGSC
notes: Produced in CHO cells
Take B2: the binding result in experiment [4] is “no binding (tested: 391.2 nM)”; in experiment [5], “no binding (tested: 854.7 nM)”.

B3: 02-005, bivalent bispecific chimeric antibody that specifically binds to PD1 and CD20 (bispecific antibody, human IgG1, kappa, L234A L235A)
heavy 1: EVQLVESGGGLVQPGGSLRLSCAASGYTFTSYNMHWVRQAPGKGLEWVGAIYPGNGDTSYNQKFKGRFTISVDKSKNTLYLQMNSLRAEDTAVYYCARVVYYSNSYWYFDVWGQGTLVTVSSASTKGPSVFPLAPSSKSTSGGTAALGCLVKDYFPEPVTVSWNSGALTSGVHTFPAVLQSSGLYSLSSVVTVPSSSLGTQTYICNVNHKPSNTKVDKRVEPKSCDKTHTCPPCPAPEAAGGPSVFLFPPKPKDTLYITREPEVTCVVVDVSHEDPEVKFNWYVDGVEVHNAKTKPREEQYNSTYRVVSVLTVLHQDWLNGKEYKCKVSNKALPAPIEKTISKAKGQPREPQVCTLPPSRDELTKNQVSLSCAVKGFYPSDIAVEWESNGQPENNYKTTPPVLDSDGSFFLVSKLTVDKSRWQQGNVFSCSVMHEALHNHYTQKSLSLSPGK
light 1: DIQMTQSPSSLSASVGDRVTITCRASSSVSYMHWYQQKPGKAPKPLIYAPSNLASGVPSRFSGSGSGTDFTLTISSLQPEDFATYYCQQWSFNPPTFGQGTKVEIKRTVAAPSVFIFPPSDEQLKSGTASVVCLLNNFYPREAKVQWKVDNALQSGNSQESVTEQDSKDSTYSLSSTLTLSKADYEKHKVYACEVTHQGLSSPVTKSFNRGEC
heavy 2: not shown
light 2: QPVLTQPLSVSVALGQTARITCGGNNIGSKNVHWYQQKPGQAPVLVIYRDSNRPSGIPERFSGSNSGNTATLTISRAQAGDEADYYCQVWDSSTAVFGTGTKLTVLQQRQVKPEAWLSSGPSPGPGRLQLVCHVSGFYPKPVWVMWMRGEQEQQGTQLGDILPNANWTWYLRATLDVADGEAAGLSCRVKHSSLEGQDIILYWRGSC
notes: Produced in CHO cells
In the case of B3, the binding result is given as “no binding (tested: 522.5 nM)” in experiment [2], “no binding (tested: 391.2 nM)” in experiment [4] and “no binding (tested: 854.7 nM)” in experiment [5].

B4: 02-007, bivalent bispecific chimeric antibody that specifically binds to PD1 and CSF1R (bispecific antibody, human IgG1, kappa, L234A L235A)
heavy 1: QVQLVESGGGLVRPGGSLRLSCAASEFTFDDYAMSWVRQAPGKGLEWVSAISWNGGSTNYADSVKGRFTISRDNAKNSLYLQMNSLRAEDTALYYCASTVEVAHRRLYKYLEVWGQGTLVTVSSASTKGPSVFPLAPSSKSTSGGTAALGCLVKDYFPEPVTVSWNSGALTSGVHTFPAVLQSSGLYSLSSVVTVPSSSLGTQTYICNVNHKPSNTKVDKRVEPKSCDKTHTCPPCPAPEAAGGPSVFLFPPKPKDTLYITREPEVTCVVVDVSHEDPEVKFNWYVDGVEVHNAKTKPREEQYNSTYRVVSVLTVLHQDWLNGKEYKCKVSNKALPAPIEKTISKAKGQPREPQVCTLPPSRDELTKNQVSLSCAVKGFYPSDIAVEWESNGQPENNYKTTPPVLDSDGSFFLVSKLTVDKSRWQQGNVFSCSVMHEALHNHYTQKSLSLSPGK
light 1: QAGLTQPPSVSVAPGQTARITCGGNNIGSKSVHWYQQKPGQAPVLVVYGDSDRPSGIPERFSGSNSGNTATLTISRVEAGDEADYYCQVWDISSDHVVFGGGTQLTVLRTVAAPSVFIFPPSDEQLKSGTASVVCLLNNFYPREAKVQWKVDNALQSGNSQESVTEQDSKDSTYSLSSTLTLSKADYEKHKVYACEVTHQGLSSPVTKSFNRGEC
heavy 2: not shown
light 2: QPVLTQPLSVSVALGQTARITCGGNNIGSKNVHWYQQKPGQAPVLVIYRDSNRPSGIPERFSGSNSGNTATLTISRAQAGDEADYYCQVWDSSTAVFGTGTKLTVLQQRQVKPEAWLSSGPSPGPGRLQLVCHVSGFYPKPVWVMWMRGEQEQQGTQLGDILPNANWTWYLRATLDVADGEAAGLSCRVKHSSLEGQDIILYWRGSC
notes: Produced in CHO cells
With B4, the binding result in experiment [3] is reported as “no binding (tested: 1154 nM)”; in experiment [4], “no binding (tested: 391.2 nM)”; in experiment [5] it was “no binding (tested: 854.7 nM)”.

B5: 02-008, bivalent bispecific chimeric antibody that specifically binds to CD20 and CSF1R (bispecific antibody, human IgG1, kappa, L234A L235A)
heavy 1: EVQLVESGGGLVQPGGSLRLSCAASGYTFTSYNMHWVRQAPGKGLEWVGAIYPGNGDTSYNQKFKGRFTISVDKSKNTLYLQMNSLRAEDTAVYYCARVVYYSNSYWYFDVWGQGTLVTVSSASTKGPSVFPLAPSSKSTSGGTAALGCLVKDYFPEPVTVSWNSGALTSGVHTFPAVLQSSGLYSLSSVVTVPSSSLGTQTYICNVNHKPSNTKVDKRVEPKSCDKTHTCPPCPAPEAAGGPSVFLFPPKPKDTLYITREPEVTCVVVDVSHEDPEVKFNWYVDGVEVHNAKTKPREEQYNSTYRVVSVLTVLHQDWLNGKEYKCKVSNKALPAPIEKTISKAKGQPREPQVCTLPPSRDELTKNQVSLSCAVKGFYPSDIAVEWESNGQPENNYKTTPPVLDSDGSFFLVSKLTVDKSRWQQGNVFSCSVMHEALHNHYTQKSLSLSPGK
light 1: DIQMTQSPSSLSASVGDRVTITCRASSSVSYMHWYQQKPGKAPKPLIYAPSNLASGVPSRFSGSGSGTDFTLTISSLQPEDFATYYCQQWSFNPPTFGQGTKVEIKRTVAAPSVFIFPPSDEQLKSGTASVVCLLNNFYPREAKVQWKVDNALQSGNSQESVTEQDSKDSTYSLSSTLTLSKADYEKHKVYACEVTHQGLSSPVTKSFNRGEC
heavy 2: not shown
light 2: QAGLTQPPSVSVAPGQTARITCGGNNIGSKSVHWYQQKPGQAPVLVVYGDSDRPSGIPERFSGSNSGNTATLTISRVEAGDEADYYCQVWDISSDHVVFGGGTQLTVLQRQVKPEAWLSSGPSPGPGRLQLVCHVSGFYPKPVWVMWMRGEQEQQGTQLGDILPNANWTWYLRATLDVADGEAAGLSCRVKHSSLEGQDIILYWRGSC
notes: Produced in CHO cells
As for B5, the binding result in experiment [5] is “no binding (tested: 854.7 nM)”.

For the origin of these results see patent US20250340613A1 (JOINT STOCK COMPANY BIOCAD, published 2025).
